Here are results for two molecules from patent publication US20220119534A1 (DRAGONFLY THERAPEUTICS, published 2022).

Where “and” joins values, the source holds several entries; their conditions need not be identical. Equal values may be shown once.

In test [1] the target is T1, Cynomolgus CD16 (FcγRIII) (cynomolgus monkey, UniProt Q8SPW2 17-208, biotinylated).
T1 construct: Bought recombinant receptor; also called cFcγRIII; Cyno FcγRIII
Kind of test: SPR 25C, biotinylated cyno CD16 captured.

For test [2], the target named is T2, Human CLEC12A-His (recombinant, K244 WT) (human, UniProt Q5QGZ9 65-265).
T2 construct: Made in house (Dragonfly Tx); also called hCLEC12A; hCLEC12A-His; not shown: His tag
T2 sequence: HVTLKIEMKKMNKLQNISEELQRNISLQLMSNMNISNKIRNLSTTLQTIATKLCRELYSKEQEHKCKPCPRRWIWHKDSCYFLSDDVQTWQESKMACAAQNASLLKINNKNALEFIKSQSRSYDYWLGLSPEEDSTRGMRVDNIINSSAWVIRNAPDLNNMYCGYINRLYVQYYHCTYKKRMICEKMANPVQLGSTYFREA
Kind of test: SPR, two-state fit (ka1); after low pH hold. Background: Surface plasmon resonance follows binding to a sensor surface in real time, without labels.

The next test has as its target T3, Human CD16b (FcγRIIIb) (human, UniProt O75015 17-200, limits assumed, biotinylated).
T3 construct: Bought recombinant receptor; also called hFcγRIIIb; CD16b (FcγR3b)
In words: SPR 25C, average.

Test [3] concerns the target T2, Human CLEC12A-His (recombinant, K244 WT). In words: SPR, two-state fit; control sample.
Test [4] addresses T4, Human CD16a V158 (FcγRIIIa V158) (human, UniProt P08637 17-208, biotinylated).
T4 construct: Bought recombinant receptor; also called hCD16aV; hFcγRIIIa V158
In words: SPR; control sample.

Test [5] has as its target T5, mFc-hNKG2D (recombinant mFc-tagged human NKG2D dimer) (human, UniProt P26718 73-216).
T5 construct: extracellular domain; Made in house; not shown: mouse Fc tag
T5 sequence (looked up): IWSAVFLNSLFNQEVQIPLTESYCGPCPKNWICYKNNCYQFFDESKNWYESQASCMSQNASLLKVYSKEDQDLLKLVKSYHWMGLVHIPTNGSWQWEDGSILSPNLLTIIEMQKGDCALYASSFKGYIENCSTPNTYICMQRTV
In words: SPR; control sample.

The target in test [6] is T4, Human CD16a V158 (FcγRIIIa V158). In words: SPR; after pH 8, 40C, 2 wks.
The target of the next test is T6, human CLEC12A-K244Q-His (human, UniProt Q5QGZ9 65-265).
T6 construct: Polymorphic variant; also called hCLEC12A-K244Q; CLEC12A (Q244)
T6 chain: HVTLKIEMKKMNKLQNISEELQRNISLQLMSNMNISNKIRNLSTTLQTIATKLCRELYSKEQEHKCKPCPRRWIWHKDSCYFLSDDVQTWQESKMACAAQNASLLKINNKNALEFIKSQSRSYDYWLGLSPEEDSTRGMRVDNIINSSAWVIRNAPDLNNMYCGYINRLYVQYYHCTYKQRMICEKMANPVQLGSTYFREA
In words: SPR.

The target in test [7] is T7, human CLEC12A expressed on cells (human, UniProt Q5QGZ9 1-265).
T7 construct: Transduced isogenic cells or endogenous expression on AML cells; also called RMA-hCLEC12A; Ba/F3-hCLEC12A
T7 sequence: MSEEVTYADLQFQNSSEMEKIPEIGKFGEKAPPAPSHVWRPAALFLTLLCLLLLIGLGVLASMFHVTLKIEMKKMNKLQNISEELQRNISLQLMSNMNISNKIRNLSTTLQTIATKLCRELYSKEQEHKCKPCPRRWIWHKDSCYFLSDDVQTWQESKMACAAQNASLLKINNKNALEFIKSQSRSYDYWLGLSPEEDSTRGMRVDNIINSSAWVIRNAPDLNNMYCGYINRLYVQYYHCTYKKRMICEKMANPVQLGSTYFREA
In words: flow cytometry, hCLEC12A+ Ba/F3.

The target in test [8] is T8, recombinant human CLEC12A-His (human, UniProt Q5QGZ9 65-265).
T8 construct: also called hCLEC12A-His; hCLEC12A
T8 sequence: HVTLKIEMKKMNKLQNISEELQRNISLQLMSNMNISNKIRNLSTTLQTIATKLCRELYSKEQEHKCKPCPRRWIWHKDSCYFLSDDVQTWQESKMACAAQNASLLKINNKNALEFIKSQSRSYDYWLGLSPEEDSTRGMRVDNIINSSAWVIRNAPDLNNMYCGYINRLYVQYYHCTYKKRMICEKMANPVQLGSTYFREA
Kind of test: SPR, CLEC12A binding.

Test [9] has as its target T9, recombinant cynomolgus FcRn (cynomolgus monkey, UniProt Q8SPV9 24-297; Q8SPW0 21-119).
T9 construct: also called cFcRn; cyno FcRn
In words: SPR 25C, pH 6.0, steady state; pH 6.0; first replicate.

Test [10] deals with T8, recombinant human CLEC12A-His. Kind of test: SPR 37C.
Test [11] has as its target T9, recombinant cynomolgus FcRn. Kind of test: SPR 25C, pH 6.0, steady state; pH 6.0; fourth replicate.
Another test addresses T10, recombinant human FcRn (human, UniProt P55899 24-297; P61769 21-119).
T10 construct: also called hFcRn
In words: SPR 25C, pH 6.0, steady state; pH 6.0; second replicate.

T1 sequence (Q8SPW2 17-208 limits assumed): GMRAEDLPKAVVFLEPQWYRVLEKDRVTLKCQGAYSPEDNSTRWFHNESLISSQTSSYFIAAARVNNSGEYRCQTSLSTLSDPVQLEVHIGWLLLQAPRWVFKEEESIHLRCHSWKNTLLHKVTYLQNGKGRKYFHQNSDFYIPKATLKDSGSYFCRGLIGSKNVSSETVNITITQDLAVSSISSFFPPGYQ
T4 sequence (P08637 17-208 F176V limits assumed): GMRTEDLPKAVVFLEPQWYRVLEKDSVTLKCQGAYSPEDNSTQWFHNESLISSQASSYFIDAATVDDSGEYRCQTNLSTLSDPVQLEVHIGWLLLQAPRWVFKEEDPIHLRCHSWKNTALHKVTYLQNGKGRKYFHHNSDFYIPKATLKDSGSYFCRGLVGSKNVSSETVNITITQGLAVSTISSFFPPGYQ
T9 sequence (Q8SPV9 24-297 limits assumed, chain 1 of 2): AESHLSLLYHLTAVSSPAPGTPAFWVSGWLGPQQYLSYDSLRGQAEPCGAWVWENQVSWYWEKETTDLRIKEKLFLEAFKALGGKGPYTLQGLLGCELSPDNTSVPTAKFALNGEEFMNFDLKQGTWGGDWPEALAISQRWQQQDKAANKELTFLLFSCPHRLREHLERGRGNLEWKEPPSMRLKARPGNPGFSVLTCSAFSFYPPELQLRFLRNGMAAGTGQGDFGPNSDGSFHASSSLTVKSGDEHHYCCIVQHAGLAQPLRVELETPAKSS
T9 sequence (Q8SPW0 21-119 limits assumed, chain 2 of 2): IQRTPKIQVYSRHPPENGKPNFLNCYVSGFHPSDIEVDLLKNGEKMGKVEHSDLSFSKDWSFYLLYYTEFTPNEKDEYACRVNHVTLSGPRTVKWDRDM
T10 sequence (P55899 24-297 limits assumed, chain 1 of 2): as the sequence (Q8SPV9 24-297 limits assumed, chain 1 of 2) above, with D39N, Q44E, S99G, G189S, N190S, M217L, T269S counted along it
T10 sequence (P61769 21-119 limits assumed, chain 2 of 2): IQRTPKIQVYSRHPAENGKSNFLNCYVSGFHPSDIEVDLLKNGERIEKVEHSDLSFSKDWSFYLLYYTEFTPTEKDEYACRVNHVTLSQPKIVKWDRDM
T3 sequence (O75015 17-200 limits assumed): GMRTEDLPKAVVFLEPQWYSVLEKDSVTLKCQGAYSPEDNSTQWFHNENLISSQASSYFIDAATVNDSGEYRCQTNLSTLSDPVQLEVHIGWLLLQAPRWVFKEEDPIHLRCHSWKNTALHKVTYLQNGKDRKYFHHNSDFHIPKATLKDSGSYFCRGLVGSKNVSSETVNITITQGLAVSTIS

B1: AB0089 TriNKET (bispecific antibody, human IgG1, kappa)
chain: QLQLQESGPGLVKPSETLSLTCTVSGFSLTNYGLHWIRQPPGKCLEWIGVIWVGGATDYNPSLKSRVTISVDTSKNQFSLKLSSVQAADTAVYYCAKGDYGDTLDYWGQGTLVTVSSGGGGSGGGGSGGGGSGGGGSDIQMTQSPSSLSASVGDRVTITCHASQNINFWLSWYQQKPGKAPKLLIYEASNLHTGVPSRFSGSGSGTDFTLTISSLQPEDFATYYCQQSHSYPLTFGCGTKLEIKGSDKTHTCPPCPAPELLGGPSVFLFPPKPKDTLMISRTPEVTCVVVDVSHEDPEVKFNWYVDGVEVHNAKTKPREEQYNSTYRVVSVLTVLHQDWLNGKEYKCKVSNKALPAPIEKTISKAKGQPREPRVYTLPPCRDELTKNQVSLTCLVKGFYPSDIAVEWESNGQPENNYKTTPPVLVSDGSFTLYSKLTVDKSRWQQGNVFSCSVMHEALHNHYTQKSLSLSPG
heavy: EVQLVESGGGLVKPGGSLRLSCAASGFTFSSYSMNWVRQAPGKGLEWVSSISSSSSYIYYADSVKGRFTISRDNAKNSLYLQMNSLRAEDTAVYYCARGAPIGAAAGWFDPWGQGTLVTVSSASTKGPSVFPLAPSSKSTSGGTAALGCLVKDYFPEPVTVSWNSGALTSGVHTFPAVLQSSGLYSLSSVVTVPSSSLGTQTYICNVNHKPSNTKVDKKVEPKSCDKTHTCPPCPAPELLGGPSVFLFPPKPKDTLMISRTPEVTCVVVDVSHEDPEVKFNWYVDGVEVHNAKTKPREEQYNSTYRVVSVLTVLHQDWLNGKEYKCKVSNKALPAPIEKTISKAKGQPREPQVCTLPPSRDELTENQVSLTCLVKGFYPSDIAVEWESNGQPENNYKTTPPVLDSDGSFFLYSWLTVDKSRWQQGNVFSCSVMHEALHNHYTQKSLSLSPG
light: DIQMTQSPSSVSASVGDRVTITCRASQGISSWLAWYQQKPGKAPKLLIYAASSLQSGVPSRFSGSGSGTDFTLTISSLQPEDFATYYCQQGVSFPRTFGGGTKVEIKRTVAAPSVFIFPPSDEQLKSGTASVVCLLNNFYPREAKVQWKVDNALQSGNSQESVTEQDSKDSTYSLSSTLTLSKADYEKHKVYACEVTHQGLSSPVTKSFNRGEC
notes: F3' format heterodimer of three chains; human IgG1 Fc with EW-RVT and Y349C/S354C mutations; also called AB0089 Lot AB0089-002; CLEC12A TriNKET AB0089
Usually Kd stands for the constant that tells how readily two partners part at equilibrium. By kon is commonly meant the rate constant with which the complex forms. As a reminder, the koff is a measure of how fast the partners let go of each other. As to B1, the Kd in test [1] is 0.351 µM and 0.347 µM and 0.348 µM; with Human CD16b (FcγRIIIb) it was 8.9 µM; in test [3], 0.001 µM; in test [4], 0.333 µM; in test [5] it was 0.881 µM; in test [6], 0.35 µM. Besides, the kon was determined as 1.11e+07 M⁻¹ s⁻¹ in [2], 83100 M⁻¹ s⁻¹ in test [4], 162000 M⁻¹ s⁻¹ in [5] and 79400 M⁻¹ s⁻¹ in test [6]. In addition, the dissociation rate constant (koff) in [4] came out at 0.0277 s⁻¹; in test [5], 0.143 s⁻¹; in [6] it was 0.0279 s⁻¹.

B2: F3'-1602 TriNKET (other)
chain: QLQLQESGPGLVKPSETLSLTCTVSGFSLTNYGLHWIRQPPGKCLEWIGVIWSGGKTDYNPSLKSRVTISKDTSKNQFSLKLSSVQAADTAVYYCAKYDYDDSLDYWGQGTLVTVSSGGGGSGGGGSGGGGSGGGGSDIQMTQSPSSLSASVGDRVTITCHASQNINFWLSWYQQKPGKAPKLLIYEASNLHTGVPSRFSGSGSGTRFTLTISSLQPEDIATYYCQQSHSYPLTFGCGTKLEIKGSDKTHTCPPCPAPELLGGPSVFLFPPKPKDTLMISRTPEVTCVVVDVSHEDPEVKFNWYVDGVEVHNAKTKPREEQYNSTYRVVSVLTVLHQDWLNGKEYKCKVSNKALPAPIEKTISKAKGQPREPRVYTLPPCRDELTKNQVSLTCLVKGFYPSDIAVEWESNGQPENNYKTTPPVLVSDGSFTLYSKLTVDKSRWQQGNVFSCSVMHEALHNHYTQKSLSLSPG
heavy: EVQLVESGGGLVKPGGSLRLSCAASGFTFSSYSMNWVRQAPGKGLEWVSSISSSSSYIYYADSVKGRFTISRDNAKNSLYLQMNSLRAEDTAVYYCARGAPIGAAAGWFDPWGQGTLVTVSSASTKGPSVFPLAPSSKSTSGGTAALGCLVKDYFPEPVTVSWNSGALTSGVHTFPAVLQSSGLYSLSSVVTVPSSSLGTQTYICNVNHKPSNTKVDKKVEPKSCDKTHTCPPCPAPELLGGPSVFLFPPKPKDTLMISRTPEVTCVVVDVSHEDPEVKFNWYVDGVEVHNAKTKPREEQYNSTYRVVSVLTVLHQDWLNGKEYKCKVSNKALPAPIEKTISKAKGQPREPQVCTLPPSRDELTENQVSLTCLVKGFYPSDIAVEWESNGQPENNYKTTPPVLDSDGSFFLYSWLTVDKSRWQQGNVFSCSVMHEALHNHYTQKSLSLSPG
light: DIQMTQSPSSVSASVGDRVTITCRASQGISSWLAWYQQKPGKAPKLLIYAASSLQSGVPSRFSGSGSGTDFTLTISSLQPEDFATYYCQQGVSFPRTFGGGTKVEIKRTVAAPSVFIFPPSDEQLKSGTASVVCLLNNFYPREAKVQWKVDNALQSGNSQESVTEQDSKDSTYSLSSTLTLSKADYEKHKVYACEVTHQGLSSPVTKSFNRGEC
notes: CLEC12A scFv-Fc, NKG2D A49MI Fab-Fc, human IgG1 Fc; also called AB0237
The term EC50 denotes the concentration at which the effect is half-maximal. With B2, the Kd was 0.00077 µM with human CLEC12A-K244Q-His; 0.0006 µM in test [8]; 1.1 µM in [9]; 0.0012 µM and 0.00119 µM in test [10]; 1.5 µM in test [11]; 1.1 µM with recombinant human FcRn. Moreover, the koff was 0.000436 s⁻¹ with human CLEC12A-K244Q-His; 0.000952 s⁻¹ and 0.000913 s⁻¹ in test [10]. For the same molecule, the kon with human CLEC12A-K244Q-His is 565000 M⁻¹ s⁻¹; in [10] it was 791000 M⁻¹ s⁻¹ and 768000 M⁻¹ s⁻¹. The EC50 in test [7] was 0.0032 µM.
